Data on two proteins can be found in publication PMC5114784, “Identification and characterization of two new 5-keto-4-deoxy-D-Glucarate Dehydratases/Decarboxylases” (BMC Biotechnology, 2016).

Substrate in data set [1]: O=C(O)C(=O)C[C@H](O)[C@@H](O)C(=O)O
Description: purified protein. In kind it is biochemical, Acinetobacter baylyi. The settings on record: 2.5 mM KPi pH 7.0, 2 mM MgCl2, 25 μg/ml BTB, 37 °C.

Substrate in data set [2]: O=C(O)C(=O)C[C@H](O)[C@@H](O)C(=O)O
Description: purified protein. In kind it is biochemical, Polaromonas naphthalenivorans. The settings on record: 2.5 mM KPi pH 7.0, 2 mM MgCl2, 25 μg/ml BTB, 37 °C.

B1: KdgDAb (Acinetobacter baylyi ADP1) (protein)
chain: MDALELKNIVSDGLLSFPVTDFDQNGDFNAASYAKRLEWLAPYGASALFAAGGTGEFFSLTGDEYSDVIKTAVDACKGSVPIIAGAGGPTRQAILQAQEAERLGAHGILLMPHYLTEASQEGLVEHVKQVCNAVNFGVIFYNRSVSKLNVDSLQQLVESCPNLIGFKDSSGQIDMMTEVVQTLGDRLSYLGGLPTAEIFAAPYKALGSPVYSSAVFNFIPKTAMEFYNALRNDDFATTQRLIRDFFLPLIKIRNRKSGYAVSMVKAGAKIVGHDAGPVRPPLSDLTPQDYEDLAALIATLGPQ
notes: full-length, N-terminal His-tag (NH), codon-optimized gene, E. coli BL21(DE3), IMAC purified
In the case of B1, in data set [1], the Km came to 1000 ± 100 µM, the Vmax came out at 8 µmol/min/mg, the kcat was 4.5 ± 0.02 s⁻¹ and the catalytic efficiency (kcat/Km) turned out to be 4500 M⁻¹ s⁻¹.

B2: KdgDPn (Polaromonas naphthalenivorans CJ2) (protein)
chain: MNPQDLKTIVSSGLLSFPVTDFDEQGDFRPKTYIERLEWLAPYGATALFAAGGTGEFFSLTGDEYPLIIKTAVNTCAGKVPIIAGVGGPTRFAIACAQEAERLGAHGILLLPHYLMEAGQEGLIAHVEAVCKSVKFGVIVYNRNVCKLTPESLAILADRCPNLIGFKDGVGNIETMSSIFMKMGDRFSYLGGLPTAEVYAAAYKALGTPVYSSAVFNFIPKTAMDFYHAVASDDLATQHRLLRDFFMPYLALRNKNPGYAVSIVKAGATIVGHDAGPVRPPLTDLKPAEMEELAVLIKSLGPQ
notes: full-length, C-terminal His-tag (CH), codon-optimized gene, E. coli ArcticExpress(DE3), IMAC purified
Take B2: in data set [2], the Km was 1100 ± 100 µM, the Vmax turned out to be 3 µmol/min/mg, the kcat turned out to be 1.7 ± 0.01 s⁻¹ and the kcat/Km worked out at 1500 M⁻¹ s⁻¹.

A word on the Km: it is the substrate concentration at which the rate is half of its maximum. As a reminder, the Vmax is the rate approached at saturating substrate. As usually defined, the kcat is the number of substrate molecules converted per active site and unit of time at saturation. By kcat/Km is commonly meant the second-order rate constant that governs catalysis at low substrate concentration.
